The results in this text go back to patent EP3108897A1 (F. Hoffmann-La Roche AG, dated 2016).

For assay [1], the target named is human wildtype CSF-1R (full-length) (human, UniProt P07333 20-972). Nature of the assay: cell-based or functional assay.
The target in assay [2] is human mutant CSF-1R L301S Y969F (full-length) (human) (UniProt P07333). The assay is described as follows: cell-based or functional assay.

In assay [1], “Anti CSF-1R SC 2-4A5 (Santa Cruz Biotechnology, US) (antibody)” gave an IC50 CSF-1R Phosphorylation (phospho/total CSF-1R ELISA on lysates of NIH3T3-CSF-1R cells stimulated with hu CSF-1) of 1.01 µg/mL and a wtCSF-1R IC30 (CellTiterGlo viability of NIH3T3-wtCSF-1R spheroids, 3 days) of 16.6 µg/mL. This substance returned a Mutant CSF-1R IC30 (CellTiterGlo viability of NIH3T3-mutant CSF-1R spheroids, 3 days) in assay [2] of 2.56 µg/mL.
For the substance “goat polyclonal anti-CSF-1R antibody ab10676 (abcam)”, the wtCSF-1R IC30 (CellTiterGlo viability of NIH3T3-wtCSF-1R spheroids, 3 days) in assay [1] worked out at 14.2 µg/mL. Moreover, in assay [2], the % inhibition of cell viability at 20 µg/ml (NIH3T3-mutant CSF-1R spheroids) was found to be 0% and the Mutant CSF-1R IC30 (CellTiterGlo viability of NIH3T3-mutant CSF-1R spheroids, 3 days) is greater than 20 µg/mL.
